In publication PMC9677509 (Biochemistry, 2017):
Changes are numbered by the printed parent chain. Names may count otherwise. Blank lines part the entries; values can stand above or below the molecule they belong to.

Key:
[1] = biological target: temperature sensitive HARS with the R362H substitution (UniProt P12081); experiment: AUC
AUC = biological target: the molecule itself; experiment: AUC

stoichiometry N [1]: 2
Molecule: temperature sensitive HARS with the R362H substitution (from UniProt P12081 1-509) (enzyme)

B1: human FLAG-tagged wild type histidyl-tRNA synthetase (HARS) (enzyme, UniProt P12081 1-509, looked up)
chain: MAERAALEELVKLQGERVRGLKQQKASAELIEEEVAKLLKLKAQLGPDESKQKFVLKTPKGTRDYSPRQMAVREKVFDVIIRCFKRHGAEVIDTPVFELKETLMGKYGEDSKLIYDLKDQGGELLSLRYDLTVPFARYLAMNKLTNIKRYHIAKVYRRDNPAMTRGRYREFYQCDFDIAGNFDPMIPDAECLKIMCEILSSLQIGDFLVKVNDRRILDGMFAICGVSDSKFRTICSSVDKLDKVSWEEVKNEMVGEKGLAPEVADRIGDYVQQHGGVSLVEQLLQDPKLSQNKQALEGLGDLKLLFEYLTLFGIDDKISFDLSLARGLDYYTGVIYEAVLLQTPAQAGEEPLGVGSVAAGGRYDGLVGMFDPKGRKVPCVGLSIGVERIFSIVEQRLEALEEKIRTTETQVLVASAQKKLLEERLKLVSELWDAGIKAELLYKKNPKLLNQLQYCEEAGIPLVAIIGEQELKDGVIKLRSVTSREEVDVRREDLVEEIKRRTGQPLCIC
stoichiometry N (AUC): 2

B2: human FLAG-tagged Y454S histidyl-tRNA synthetase (HARS) (enzyme, UniProt P12081 1-509, looked up)
chain: B1 chain with Y454S
stoichiometry N (AUC): 2
